± gives the standard deviation of the averaged measurements.
B1: library; a variant is named by its letters at N, in order (parent)
chain: GCUGUCACCGAGAAACUGUGAAGUAUAUCUUAAACCUGGGCACUUAAAAGAUAUAUGGAGUUAGUAGUGCAACCUGCUCGGUCUGAUGAGUCCNNNNNNGGACGAAACAGC

Experiments:
cyclic di-GMP [1] = variants of: B1; assay: normalized RNA/DNA level without ligand (relative to sTRSVctl = 100) (log10 (% of sTRSVctl)); HEK293T; ligand: cyclic di-GMP (c-di-GMP-II aptamer); higher = less ribozyme self-cleavage, higher mRNA level; settings: reporter: mCherry (pCS4076), ligand present: no
In short: (§1)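 Ribozyme switch library plasmids linked to reporters were introduced into HEK293T cells at 4 µg per 6-well well, with ligand, if any, added 1 h before. Total RNA was extracted with EDTA 72 h later, reverse-transcribed, amplified, barcoded and sequenced. RNA level was computed from RNA over DNA reads relative to a spiked-in non-cleaving sequence or the top sequences, then scaled and log-transformed. The top set was 25 sequences, values were ×100 and log10, and the cutoff was ≥100 DNA reads.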

cyclic di-GMP [2] = variants of: B1; assay: normalized RNA/DNA level with ligand (relative to sTRSVctl = 100) (log10 (% of sTRSVctl)); HEK293T; ligand: cyclic di-GMP (c-di-GMP-II aptamer); ligand concentration (+) RNA-Seq: 1 mM; higher = less ribozyme self-cleavage, higher mRNA level; settings: reporter: mCherry (pCS4076), ligand present: yes
In short: as §1

Variant | normalized RNA/DNA level without ligand (log10) (cyclic di-GMP [1]) | normalized RNA/DNA level with ligand (log10) (cyclic di-GMP [2])
CGGAGG | 1.623 ± 0.014 | 1.82 ± 0.12
AGGUCG | 1.738 ± 0.013 | 1.82 ± 0.11
AGGUCC | 1.86 ± 0.022 | 1.94 ± 0.08
AGGUCU | 1.73 ± 0.045 | 1.85 ± 0.14
CGGCCG | 1.81 ± 0.035 | 1.87 ± 0.11
CGGCCC | 1.937 ± 0.016 | 1.94 ± 0.061
CGGCCU | 1.74 ± 0.018 | 1.88 ± 0.11
GGGUGC | 1.749 ± 0.006 | 1.85 ± 0.093
GGGCAC | 1.78 ± 0.042 | 1.89 ± 0.074
GGGCAG | 1.823 ± 0.015 | 1.89 ± 0.045
GGGCAA | 1.72 ± 0.046 | 1.8 ± 0.026
GGGAGC | 1.625 ± 0.0022 | 1.76 ± 0.1
GGGAGU | 1.67 ± 0.071 | 1.72 ± 0.16
UGCUAG | 1.71 ± 0.031 | 1.9 ± 0.048
UGCUAA | 1.695 ± 0.0079 | 1.87 ± 0.09
UGCUAU | 1.676 ± 0.0088 | 1.83 ± 0.13
UGCUAC | 1.7 ± 0.033 | 1.85 ± 0.069
GGGGCC | 1.85 ± 0.069 | 1.94 ± 0.13
GGGGCA | 1.752 ± 0.011 | 1.88 ± 0.081
UGGUAA | 1.56 ± 0.095 | 1.79 ± 0.096

Variant | normalized RNA/DNA level without ligand (log10) (cyclic di-GMP [1]) | normalized RNA/DNA level with ligand (log10) (cyclic di-GMP [2])
UGGUAC | 1.684 ± 0.015 | 1.83 ± 0.092
UGGUAU | 1.661 ± 0.013 | 1.82 ± 0.13
UGGUAG | 1.66 ± 0.035 | 1.82 ± 0.13
AGGGGU | 1.57 ± 0.058 | 1.7 ± 0.13
AGGGGA | 1.53 ± 0.1 | 1.59 ± 0.054
AGGGGG | 1.72 ± 0.026 | 1.81 ± 0.075
AGGGGC | 1.69 ± 0.1 | 1.83 ± 0.091
UGGCGC | 1.818 ± 0.018 | 1.9 ± 0.14
UGGCGU | 1.6 ± 0.03 | 1.81 ± 0.16
UGGCGA | 1.597 ± 0.0046 | 1.74 ± 0.11
UGGCGG | 1.854 ± 0.013 | 1.93 ± 0.13
GGCUCC | 1.88 ± 0.022 | 1.96 ± 0.11
GGCUCU | 1.78 ± 0.041 | 1.92 ± 0.076
GGCUCA | 1.69 ± 0.021 | 1.88 ± 0.22
GGCUCG | 1.78 ± 0.055 | 1.87 ± 0.036
GGGAUA | 1.54 ± 0.19 | 1.66 ± 0.044
GGGAUC | 1.66 ± 0.064 | 1.77 ± 0.09
GGGAUU | 1.66 ± 0.024 | 1.77 ± 0.12
CGCUAG | 1.747 ± 0.0046 | 1.87 ± 0.15
CGGCUG | 1.74 ± 0.087 | 1.87 ± 0.12

Variant | normalized RNA/DNA level without ligand (log10) (cyclic di-GMP [1]) | normalized RNA/DNA level with ligand (log10) (cyclic di-GMP [2])
CGGCUC | 1.782 ± 0.0084 | 1.85 ± 0.085
CGCGGG | 1.67 ± 0.1 | 1.87 ± 0.047
CGCGGU | 1.67 ± 0.02 | 1.87 ± 0.13
GGCGUG | 1.75 ± 0.017 | 1.86 ± 0.15
GGCGUA | 1.6 ± 0.017 | 1.74 ± 0.13
GGCGUC | 1.68 ± 0.077 | 1.79 ± 0.17
GGGCGC | 1.84 ± 0.027 | 1.92 ± 0.091
UGGACA | 1.712 ± 0.0091 | 1.83 ± 0.11
UGGACG | 1.782 ± 0.011 | 1.86 ± 0.15
GGCUGA | 1.54 ± 0.052 | 1.71 ± 0.14
GGCUGU | 1.68 ± 0.05 | 1.79 ± 0.18
GGCUGG | 1.746 ± 0.013 | 1.82 ± 0.092
GGCUGC | 1.7019 ± 0.0016 | 1.83 ± 0.11
UGGGAU | 1.55 ± 0.12 | 1.75 ± 0.11
UGGGAG | 1.673 ± 0.012 | 1.79 ± 0.14
UGGGAC | 1.697 ± 0.01 | 1.84 ± 0.078
CGGUAG | 1.731 ± 0.0046 | 1.84 ± 0.038
UGCGUG | 1.71 ± 0.084 | 1.9 ± 0.096

From the supplement of paper PMC6757056
